Test results as given in patent publication US20170101476A1 (Novartis, published 2017).
Values belong to the binder of their own block, whether it stands above or below them.

What was measured:
Assay in all cases: cell-based or functional assay
Human CXCR2 [1] = target: T1, Human CXCR2 (human, UniProt P25025 1-360)
T1 sequence: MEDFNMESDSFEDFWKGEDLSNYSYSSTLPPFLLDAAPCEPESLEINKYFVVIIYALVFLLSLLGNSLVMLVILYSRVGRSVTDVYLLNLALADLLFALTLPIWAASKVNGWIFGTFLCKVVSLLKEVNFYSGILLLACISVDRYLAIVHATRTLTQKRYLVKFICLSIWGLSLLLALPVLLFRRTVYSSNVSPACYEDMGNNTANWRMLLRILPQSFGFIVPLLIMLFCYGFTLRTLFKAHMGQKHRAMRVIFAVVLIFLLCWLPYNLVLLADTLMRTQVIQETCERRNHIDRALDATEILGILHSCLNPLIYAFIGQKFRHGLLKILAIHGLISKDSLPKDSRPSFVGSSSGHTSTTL

Cynomolgus CXCR2 = target: T2, Cynomolgus CXCR2 (cynomolgus, UniProt Q28519 3-353 (rhesus entry))
T2 chain: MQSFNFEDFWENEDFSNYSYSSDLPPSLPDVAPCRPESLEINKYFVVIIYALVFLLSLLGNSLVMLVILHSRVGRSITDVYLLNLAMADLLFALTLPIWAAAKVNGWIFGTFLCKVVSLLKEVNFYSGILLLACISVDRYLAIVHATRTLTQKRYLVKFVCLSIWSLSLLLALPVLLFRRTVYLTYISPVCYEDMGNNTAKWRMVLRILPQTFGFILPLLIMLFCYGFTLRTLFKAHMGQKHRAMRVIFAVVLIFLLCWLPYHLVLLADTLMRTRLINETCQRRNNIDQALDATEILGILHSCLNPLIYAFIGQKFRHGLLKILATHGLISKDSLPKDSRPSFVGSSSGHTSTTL

Human CXCR2 [2] = target: T1, Human CXCR2; remark: listed apart in the source

- FLIPR IC50, GRO-α induced intracellular calcium release (Human CXCR2 [1]): 2.93 nM
- FLIPR IC50, GRO-α induced intracellular calcium release (Cynomolgus CXCR2): 29.2 nM
B1: CXCR20013 (bispecific antibody, not shown: small tags and cut ends)
chain: EVQLVESGGELVQPGGSLRLSCAASGSILTINAMGWYRQAPGKQRELVVRRTRGGSTTYQDSVKGRFTISADIAKKTMYLQMNSLKPEDTAVYYCMLDDRGGVYWGQGTQVTVSSGGGGSGGGGSGGGGSGGGGSGGGGSGGGGSGGGGSEVQLVESGGGLVQPGGSLRLSCVASGSIVRINTMGWYRQTPGKQRELVADITSGGNINYIDAVKGRFTISRDNTKNTVYLQMNSLKPEDTAVYYCNAEIVVLVGVWTQRARTGNYWGQGTQVTVSS

- FLIPR IC50, GRO-α induced intracellular calcium release (Human CXCR2 [1]): 17.1 nM
- FLIPR IC50, GRO-α induced intracellular calcium release (Cynomolgus CXCR2): 10.1 nM
B2: CXCR20029 (other, not shown: small tags and cut ends)
chain: EVQLVESGGGLVQPGGSLRLSCVASGRIFSSNAMGWFRQAPGKEREFVAAITWRSGGSAYYADSAKGRFTISRDNAKNTVYLQMNSLKPEDTAVYYCAAGGSSWLSFPPDYWGQGTQVTVSSGGGGSGGGGSGGGGSGGGGSGGGGSGGGGSGGGGSEVQLVESGGGLVQAGGSLTLSCAVSGSTFRINTMGWYRRAPGKQRELVAARDRGGYINYVDSVKGRFTVSRDNAKPTMYLQMNSLKPEDTAVYYCHAGTQDRTGRNFDRWGQGTQVTVSS

- FLIPR IC50, GRO-α induced intracellular calcium release (Human CXCR2 [1]): 15.2 nM
- FLIPR IC50, GRO-α induced intracellular calcium release (Cynomolgus CXCR2): 4.26 nM
- [35S]GTPγS % inhibition of max, ENA-78 (Human CXCR2 [2]): 100%
- [35S]GTPγS % inhibition of max, IL-8 (Human CXCR2 [2]): 100%
- [35S]GTPγS accumulation IC50, ENA-78 (Human CXCR2 [2]): 1.38 nM
- [35S]GTPγS accumulation IC50, IL-8 (Human CXCR2 [2]): 0.84 nM
B3: CXCR20031 (bispecific antibody, not shown: small tags and cut ends)
chain: EVQLVESGGELVQPGGSLRLSCAASGSILTINAMGWYRQAPGKQRELVVRRTRGGSTTYQDSVKGRFTISADIAKKTMYLQMNSLKPEDTAVYYCMLDDRGGVYWGQGTQVTVSSGGGGSGGGGSGGGGSGGGGSGGGGSGGGGSGGGGSEVQLVESGGGLVQPGGSLRLSCVASGRIFSSNAMGWFRQAPGKEREFVAAITWRSGGSAYYADSAKGRFTISRDNAKNTVYLQMNSLKPEDTAVYYCAAGGSSWLSFPPDYWGQGTQVTVSS

- FLIPR IC50, GRO-α induced intracellular calcium release (Human CXCR2 [1]): 22.9 nM
- FLIPR IC50, GRO-α induced intracellular calcium release (Cynomolgus CXCR2): 1080 nM
B4: CXCR20017 (other, not shown: small tags and cut ends)
chain: EVQLVESGGGLVQPGGSLRLSCVASGSIVRINTMGWYRQTPGKQRELVADITSGGNINYIDAVKGRFTISRDNTKNTVYLQMNSLKPEDTAVYYCNAEIVVLVGVWTQRARTGNYWGQGTQVTVSSGGGGSGGGGSGGGGSGGGGSGGGGSGGGGSGGGGSEVQLVESGGGLVQPGGSVRLSCVASGIIFRLSALGWTRQGPGKAREWVAGINSDGTTNYADPVKGRFTISRDNAKNTIYLHMDMLKPEDTAVYYCASGKYRGQGTQVTVSS

- FLIPR IC50, GRO-α induced intracellular calcium release (Human CXCR2 [1]): 2.78 nM
- FLIPR IC50, GRO-α induced intracellular calcium release (Cynomolgus CXCR2): 2870 nM
B5: CXCR20015 (other, not shown: small tags and cut ends)
chain: EVQLVESGGELVQPGGSLRLSCAASGSILTINAMGWYRQAPGKQRELVVRRTRGGSTTYQDSVKGRFTISADIAKKTMYLQMNSLKPEDTAVYYCMLDDRGGVYWGQGTQVTVSSGGGGSGGGGSGGGGSGGGGSGGGGSGGGGSGGGGSEVQLVESGGGLVQPGGSVRLSCVASGIIFRLSALGWTRQGPGKAREWVAGINSDGTTNYADPVKGRFTISRDNAKNTIYLHMDMLKPEDTAVYYCASGKYRGQGTQVTVSS

- FLIPR IC50, GRO-α induced intracellular calcium release (Human CXCR2 [1]): 26.4 nM
- FLIPR IC50, GRO-α induced intracellular calcium release (Cynomolgus CXCR2): 11.8 nM
- [35S]GTPγS % inhibition of max, GRO-α (Human CXCR2 [2]): 100%
- [35S]GTPγS accumulation IC50, GRO-α (Human CXCR2 [2]): 30.3 nM
B6: CXCR20024 (VHH, not shown: small tags and cut ends)
chain: EVQLVESGGGLVQPGGSLRLSCVASGRIFSSNAMGWFRQAPGKEREFVAAITWRSGGSAYYADSAKGRFTISRDNAKNTVYLQMNSLKPEDTAVYYCAAGGSSWLSFPPDYWGQGTQVTVSSGGGGSGGGGSGGGGSGGGGSGGGGSGGGGSGGGGSEVQLVESGGGLVQPGGSLRLSCVASGRIFSSNAMGWFRQAPGKEREFVAAITWRSGGSAYYADSAKGRFTISRDNAKNTVYLQMNSLKPEDTAVYYCAAGGSSWLSFPPDYWGQGTQVTVSS

- FLIPR IC50, GRO-α induced intracellular calcium release (Human CXCR2 [1]): 12.2 nM
- FLIPR IC50, GRO-α induced intracellular calcium release (Cynomolgus CXCR2): 7.88 nM
- [35S]GTPγS % inhibition of max, GRO-α (Human CXCR2 [2]): 100%
- [35S]GTPγS accumulation IC50, GRO-α (Human CXCR2 [2]): 0.891 nM
B7: CXCR20025 (bispecific antibody, not shown: small tags and cut ends)
chain: EVQLVESGGGLVQAGGSLRLSCAASGRTFSDYAMGWFRQAPGKEREFVAAITWNGGRVFYTASVKGRFTISRDNAKNTMYLQMNSLKPEDTAVYYCAADKDRRTDYLGHPVAYWGQGTQVTVSSGGGGSGGGGSGGGGSGGGGSGGGGSGGGGSGGGGSEVQLVESGGGLVQAGESLRLSCAASGSTFDFKVMGWYRQPPGKQREGVAAIRLSGNMHYAESVKGRFTISKANAKNTVYLQMNSLRPEDTAVYYCKVNIRGQDYWGQGTQVTVSS

- FLIPR IC50, GRO-α induced intracellular calcium release (Human CXCR2 [1]): 17.8 nM
- FLIPR IC50, GRO-α induced intracellular calcium release (Cynomolgus CXCR2): 12.7 nM
B8: CXCR20027 (bispecific antibody, not shown: small tags and cut ends)
chain: EVQLVESGGGLVQPGGSLRLSCVASGRIFSSNAMGWFRQAPGKEREFVAAITWRSGGSAYYADSAKGRFTISRDNAKNTVYLQMNSLKPEDTAVYYCAAGGSSWLSFPPDYWGQGTQVTVSSGGGGSGGGGSGGGGSGGGGSGGGGSGGGGSGGGGSEVQLVESGGGLVQAGGSLRLSCAASGRTFSDYAMGWFRQAPGKEREFVAAITWNGGRVFYTASVKGRFTISRDNAKNTMYLQMNSLKPEDTAVYYCAADKDRRTDYLGHPVAYWGQGTQVTVSS

- FLIPR IC50, GRO-α induced intracellular calcium release (Human CXCR2 [1]): 137 nM
B9: CXCR20011 (VHH, not shown: small tags and cut ends)
chain: EVQLVESGGGLVQPGGSLRLSCVASGSIVRINTMGWYRQTPGKQRELVADITSGGNINYIDAVKGRFTISRDNTKNTVYLQMNSLKPEDTAVYYCNAEIVVLVGVWTQRARTGNYWGQGTQVTVSSGGGGSGGGGSGGGGSGGGGSGGGGSGGGGSGGGGSEVQLVESGGGLVQPGGSLRLSCVASGSIVRINTMGWYRQTPGKQRELVADITSGGNINYIDAVKGRFTISRDNTKNTVYLQMNSLKPEDTAVYYCNAEIVVLVGVWTQRARTGNYWGQGTQVTVSS

- FLIPR IC50, GRO-α induced intracellular calcium release (Human CXCR2 [1]): 7.86 nM
- FLIPR IC50, GRO-α induced intracellular calcium release (Cynomolgus CXCR2): 4.27 nM
B10: CXCR20036 (other, not shown: small tags and cut ends)
chain: EVQLVESGGGLVQAGGSLTLSCAVSGSTFRINTMGWYRRAPGKQRELVAARDRGGYINYVDSVKGRFTVSRDNAKPTMYLQMNSLKPEDTAVYYCHAGTQDRTGRNFDRWGQGTQVTVSSGGGGSGGGGSGGGGSGGGGSGGGGSGGGGSGGGGSEVQLVESGGGLVQAGGSLRLSCAASGRTFSDYAMGWFRQAPGKEREFVAAITWNGGRVFYTASVKGRFTISRDNAKNTMYLQMNSLKPEDTAVYYCAADKDRRTDYLGHPVAYWGQGTQVTVSS

- FLIPR IC50, GRO-α induced intracellular calcium release (Human CXCR2 [1]): 2.36 nM
- FLIPR IC50, GRO-α induced intracellular calcium release (Cynomolgus CXCR2): 1100 nM
B11: CXCR20016 (other, not shown: small tags and cut ends)
chain: EVQLVESGGGLVQPGGSVRLSCVASGIIFRLSALGWTRQGPGKAREWVAGINSDGTTNYADPVKGRFTISRDNAKNTIYLHMDMLKPEDTAVYYCASGKYRGQGTQVTVSSGGGGSGGGGSGGGGSGGGGSGGGGSGGGGSGGGGSEVQLVESGGELVQPGGSLRLSCAASGSILTINAMGWYRQAPGKQRELVVRRTRGGSTTYQDSVKGRFTISADIAKKTMYLQMNSLKPEDTAVYYCMLDDRGGVYWGQGTQVTVSS
